According to patent US20240358755A1 (IMMATICS BIOTECHNOLOGIES, published 2024):

B1: NSDLFYLLL (peptide)
peptide: NSDLFYLLL
B2: ASSPVILLL (peptide)
peptide: ASSPVILLL
B3: LNFSDVFLY (peptide)
peptide: LNFSDVFLY
B4: DVDIHKDLY (peptide)
peptide: DVDIHKDLY
B5: SADTAELLL (peptide)
peptide: SADTAELLL
B6: YSSEIWDLY (peptide)
peptide: YSSEIWDLY
B7: FSEIFQDFL (peptide)
peptide: FSEIFQDFL
B8: NSENLLVY (peptide)
peptide: NSENLLVY
B9: EAAPNIMHY (peptide)
peptide: EAAPNIMHY
B10: ETNTIEFIY (peptide)
peptide: ETNTIEFIY
B11: RADEEQASF (peptide)
peptide: RADEEQASF
B12: VSPDEVLALW (peptide)
peptide: VSPDEVLALW
B13: NVSFEVSLLY (peptide)
peptide: NVSFEVSLLY
B14: TVDKGELLY (peptide)
peptide: TVDKGELLY
B15: LIDSLLLLL (peptide)
peptide: LIDSLLLLL
B16: FTQKINSTW (peptide)
peptide: FTQKINSTW
B17: LHLNPGLSF (peptide)
peptide: LHLNPGLSF
B18: IYIPTNSIYKF (peptide)
peptide: IYIPTNSIYKF
B19: GRFWLPFNF (peptide)
peptide: GRFWLPFNF
B20: VQSGVPSRF (peptide)
peptide: VQSGVPSRF
B21: IYFHLNNWTI (peptide)
peptide: IYFHLNNWTI
B22: LYIFTTRPF (peptide)
peptide: LYIFTTRPF
B23: LYQTTIELF (peptide)
peptide: LYQTTIELF
B24: VFIPSVINL (peptide)
peptide: VFIPSVINL
B25: KYPTIICGF (peptide)
peptide: KYPTIICGF
B26: AYIPFPPLI (peptide)
peptide: AYIPFPPLI
B27: IFDLSDPRF (peptide)
peptide: IFDLSDPRF
B28: SFSLLLPYL (peptide)
peptide: SFSLLLPYL
B29: SHSLPAFTL (peptide)
peptide: SHSLPAFTL
B30: VANDRLSFL (peptide)
peptide: VANDRLSFL
B31: NQKGLISL (peptide)
peptide: NQKGLISL
B32: YAFRNQTL (peptide)
peptide: YAFRNQTL
B33: WETRLHNLW (peptide)
peptide: WETRLHNLW
B34: REQLDGATL (peptide)
peptide: REQLDGATL
B35: FDLNIGSAY (peptide)
peptide: FDLNIGSAY
B36: AEGPDHHSL (peptide)
peptide: AEGPDHHSL
B37: SQAKQITIW (peptide)
peptide: SQAKQITIW
B38: VEAPHLPSF (peptide)
peptide: VEAPHLPSF
B39: EEGRIITKW (peptide)
peptide: EEGRIITKW
B40: KEFAFLEHSL (peptide)
peptide: KEFAFLEHSL
B41: REVAGASAL (peptide)
peptide: REVAGASAL
B42: RELGVGIAL (peptide)
peptide: RELGVGIAL
B43: AETKQFWSA (peptide)
peptide: AETKQFWSA
B44: KEIEAQEAA (peptide)
peptide: KEIEAQEAA
B45: GEAAAARPV (peptide)
peptide: GEAAAARPV
B46: VEGVHFVQLL (peptide)
peptide: VEGVHFVQLL
B47: TEMSVSALY (peptide)
peptide: TEMSVSALY
B48: TILAKQNVL (peptide)
peptide: TILAKQNVL
B49: ILRTVLPSL (peptide)
peptide: ILRTVLPSL
B50: TAMTTLMAF (peptide)
peptide: TAMTTLMAF

Target: T1, HLA-A*01:01 (human)
T1 construct: Peptide-receptive MHC class I monomer: a UV-sensitive peptide (not specified) is cleaved and exchanged with the test peptide
Assay: UV peptide exchange, anti-b2m ELISA; exchange yield grade

**Q.** With B1 as the binder, how does the peptide exchange yield read?
**A.** ≥ 75%

**Q.** B2 was tested. Which peptide exchange yield did it give?
**A.** 20 to 50%

**Q.** With B3 as the binder, how does the peptide exchange yield read?
**A.** 20 to 50%

**Q.** With B4 as the binder, how does the peptide exchange yield read?
**A.** ≥ 75%

**Q.** For B5, which peptide exchange yield is on record?
**A.** 20 to 50%

**Q.** How did the peptide exchange yield turn out when B6 was run?
**A.** ≥ 75%

**Q.** For B7, which peptide exchange yield is on record?
**A.** 50 to 75%

**Q.** Which peptide exchange yield does the source give for B8 here?
**A.** 50 to 75%

**Q.** B9 was tested. Which peptide exchange yield did it give?
**A.** 20 to 50%

**Q.** Which peptide exchange yield does the source give for B10 here?
**A.** ≥ 75%

**Q.** How did the peptide exchange yield turn out when B11 was run?
**A.** 20 to 50%

**Q.** For B12, which peptide exchange yield is on record?
**A.** 20 to 50%

**Q.** For B13, which peptide exchange yield is on record?
**A.** ≥ 75%

**Q.** Which peptide exchange yield does the source give for B14 here?
**A.** ≥ 75%

**Q.** With B15 as the binder, how does the peptide exchange yield read?
**A.** 50 to 75%

**Q.** How did the peptide exchange yield turn out when B16 was run?
**A.** 20 to 50%

Target: T2, HLA-A*24:02 (human)
T2 construct: Peptide-receptive MHC class I monomer in the UV-ligand exchange assay
Assay: as above

**Q.** Does B17 bind?
**A.** binds

**Q.** Does B18 bind?
**A.** binds

**Q.** Does B19 bind?
**A.** binds

**Q.** Does B20 bind?
**A.** binds

**Q.** Does B21 bind?
**A.** binds

**Q.** Does B22 bind?
**A.** binds

**Q.** Does B23 bind?
**A.** binds

**Q.** Does B24 bind?
**A.** binds

**Q.** Does B25 bind?
**A.** binds

**Q.** Does B26 bind?
**A.** binds

**Q.** Does B27 bind?
**A.** binds

**Q.** Does B28 bind?
**A.** binds

**Q.** Does B29 bind?
**A.** binds

Target: T3, HLA-B*08:01 (human)
T3 construct: Peptide-receptive MHC class I monomer in the UV-ligand exchange assay
Assay: as above

**Q.** Does B30 bind?
**A.** binds

**Q.** Does B31 bind?
**A.** binds

**Q.** Does B32 bind?
**A.** binds

Target: HLA-B*44:05 (human)
Assay: as above

**Q.** Does B33 bind?
**A.** binds

**Q.** Does B34 bind?
**A.** binds

**Q.** Does B35 bind?
**A.** binds

**Q.** Does B36 bind?
**A.** binds

**Q.** Does B37 bind?
**A.** binds

**Q.** Does B38 bind?
**A.** binds

**Q.** Does B39 bind?
**A.** binds

**Q.** Does B40 bind?
**A.** binds

**Q.** Does B41 bind?
**A.** binds

**Q.** Does B42 bind?
**A.** binds

**Q.** Does B43 bind?
**A.** binds

**Q.** Does B44 bind?
**A.** binds

**Q.** Does B45 bind?
**A.** binds

**Q.** Does B46 bind?
**A.** binds

**Q.** Does B47 bind?
**A.** binds

Target: T3, HLA-B*08:01
Assay: allele assigned to HLA ligand eluted from tissue (IP, LC-MS)

**Q.** Does B48 bind?
**A.** binds

**Q.** Does B49 bind?
**A.** binds

**Q.** Does B50 bind?
**A.** binds
